According to patent US20110052595A1 (Kyowa Kirin, published 2011):

T1: mutant HB-EGF in which serine at position 147 from the N-terminal was substituted with threonine (human, UniProt Q99075 63-148)
T1 construct: Transiently expressed on mouse LMTK cells; also called S147T
T1 chain: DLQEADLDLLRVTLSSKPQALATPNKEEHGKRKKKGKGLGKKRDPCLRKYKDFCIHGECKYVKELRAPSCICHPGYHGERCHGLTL


Columns and labels:
[1] = target: bovine serum albumin (BSA) (bovine, UniProt P02769 25-607); experiment: binding ELISA
[2] = target: T2, recombinant secretory human HB-EGF manufactured by R & D System (catalogue number 259-HE/CF) (human, UniProt Q99075 63-148, biotin-labeled with EZ-Link Sulfo-NHS-Biotin in the EGFR binding inhibition assay only); experiment: Biacore T-100, HB-EGF immobilized on CM5 chip, antibody as analyte
T2 construct: Bought protein; also called recombinant human HB-EGF; secretory HB-EGF
Method: In order to analyze binding activities of a mouse antibody KM3566 and the chimeric antibody KM3966 for human HB-EGF in reaction kinetics, the binding activity measurement was carried out using Biacore. All of the following operations were carried out using Biacore T-100 (manufactured by Biacore). Human HB-EGF (manufactured by R & D) prepared into 5 μg/ml using HBS-EP Buffer (manufactured by Biacore) was immobilized onto a CM 5 sensor chip (manufactured by Biacore) to a level of 80 RU (resonance unit) by an amine coupling method. Thereafter, each antibody diluted 5-fold from 9 nmol/l was let flow on the chip at a rate of 10 μl/min, and by analyzing the sensor-gram at each concentration, the association rate constant and dissociation rate constant of each antibody for human HB-EGF were calculated.
It was confirmed based on the results that both antibodies almost the same binding activity for human HB-EGF.

[3] = target: T1, mutant HB-EGF in which serine at …; experiment: cell ELISA, biotin-labeled antibody on mutant HB-EGF gene-transferred LMTK cells, corrected for expression with H-6
Method: Firstly, biotin-labeled anti-HB-EGF antibody (KM3566, KM3579 or KM3966) diluted to 2 μg/ml with a binding buffer (prepared by adding nonessential amino acids, 20 mM HEPES-NaOH (pH 7.2) and 10% fetal bovine serum to Ham's F12) was allowed to react at 4° C. for 2 hours with 1×10⁵ cells of the mutant HB-EGF gene-transferred cell, human/mouse chimeric HB-EGF gene-transferred cell or mock. After the reaction, the cells were washed twice with an ice-cooled washing buffer (prepared by adding 0.5 mM CaCl₂, 0.5 mM MgCl₂ and 0.1% fetal bovine serum to PBS) and then once with PBS(+) (prepared by adding 0.5 mM CaCl₂ and 0.5 mM MgCl₂ to PBS). A formaldehyde solution diluted to 1.8% with PBS(+) was added to the washed cells, and the cells were fixed at 4° C. for 20 minutes. […] By carrying out development of color using a peroxidase detection kit (ELISA POD Substrate OPD Kit, manufactured by Nacalai Tesque), the absorbance at 492 nm was measured and the activity of cell-bonded HRP was measured.
A value obtained by subtracting the absorbance for mock from the absorbance for each of the various mutant HB-EGF gene-transferred cells or human/mouse chimeric HB-EGF gene-transferred cells of the anti-HB-EGF antibody was used as the value A. […]

Chain of bovine serum albumin (BSA) (P02769 25-607 limits assumed): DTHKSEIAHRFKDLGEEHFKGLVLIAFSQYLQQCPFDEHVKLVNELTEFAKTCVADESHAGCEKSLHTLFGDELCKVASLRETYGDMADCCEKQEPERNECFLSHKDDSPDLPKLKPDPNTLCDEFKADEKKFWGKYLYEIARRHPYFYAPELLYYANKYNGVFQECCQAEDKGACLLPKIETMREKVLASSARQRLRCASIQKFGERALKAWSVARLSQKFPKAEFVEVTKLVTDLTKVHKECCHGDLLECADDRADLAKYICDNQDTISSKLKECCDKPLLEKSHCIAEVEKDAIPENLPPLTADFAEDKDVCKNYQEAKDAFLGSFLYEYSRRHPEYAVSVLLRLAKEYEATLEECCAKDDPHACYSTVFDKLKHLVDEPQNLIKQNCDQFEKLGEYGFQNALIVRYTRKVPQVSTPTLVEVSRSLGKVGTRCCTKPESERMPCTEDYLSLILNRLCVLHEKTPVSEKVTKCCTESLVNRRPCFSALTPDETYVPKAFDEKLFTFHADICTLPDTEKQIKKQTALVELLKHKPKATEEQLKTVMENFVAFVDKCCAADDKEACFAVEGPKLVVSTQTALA

Binder	binding result [1]	kon [2] [M⁻¹ s⁻¹]	relative binding activity (ratio to pRTHGC-6) [3]
anti-HB-EGF monoclonal antibody KM3566 (antibody, V domains shown, also called anti-HB-EGF mouse antibody KM3566; monoclonal antibody produced by hybridoma KM3566 (FERM BP-10490)) VH: QVQLQQSGTELARPGASVKLSCKASGYTFRTYGITWVKQRTGQGLEWIGEIFPGSGNTYYNEKFKGKASLTADKSSSTAYMQLSSLTSEDSAVYFCARESFSDGYYGYFDYWGQGTTLTVSS VL: not shown	no binding	270000	–
anti-HB-EGF chimeric antibody KM3966 (antibody, V domains shown, also called human chimeric antibody KM3966; anti-HB-EGF monoclonal antibody KM3966) VH: QVQLQQSGTELARPGASVKLSCKASGYTFRTYGITWVKQRTGQGLEWIGEIFPGSGNTYYNEKFKGKASLTADKSSSTAYMQLSSLTSEDSAVYFCARESFSDGYYGYFDYWGQGTTLTVSS VL: not shown	–	240000	~0.33 fraction of binding to pRTHGC-6
